Biological target: native rat tail collagen type I (BD Biosciences), P02454
Sequence (P02454 152-1207, chain 1 of 2): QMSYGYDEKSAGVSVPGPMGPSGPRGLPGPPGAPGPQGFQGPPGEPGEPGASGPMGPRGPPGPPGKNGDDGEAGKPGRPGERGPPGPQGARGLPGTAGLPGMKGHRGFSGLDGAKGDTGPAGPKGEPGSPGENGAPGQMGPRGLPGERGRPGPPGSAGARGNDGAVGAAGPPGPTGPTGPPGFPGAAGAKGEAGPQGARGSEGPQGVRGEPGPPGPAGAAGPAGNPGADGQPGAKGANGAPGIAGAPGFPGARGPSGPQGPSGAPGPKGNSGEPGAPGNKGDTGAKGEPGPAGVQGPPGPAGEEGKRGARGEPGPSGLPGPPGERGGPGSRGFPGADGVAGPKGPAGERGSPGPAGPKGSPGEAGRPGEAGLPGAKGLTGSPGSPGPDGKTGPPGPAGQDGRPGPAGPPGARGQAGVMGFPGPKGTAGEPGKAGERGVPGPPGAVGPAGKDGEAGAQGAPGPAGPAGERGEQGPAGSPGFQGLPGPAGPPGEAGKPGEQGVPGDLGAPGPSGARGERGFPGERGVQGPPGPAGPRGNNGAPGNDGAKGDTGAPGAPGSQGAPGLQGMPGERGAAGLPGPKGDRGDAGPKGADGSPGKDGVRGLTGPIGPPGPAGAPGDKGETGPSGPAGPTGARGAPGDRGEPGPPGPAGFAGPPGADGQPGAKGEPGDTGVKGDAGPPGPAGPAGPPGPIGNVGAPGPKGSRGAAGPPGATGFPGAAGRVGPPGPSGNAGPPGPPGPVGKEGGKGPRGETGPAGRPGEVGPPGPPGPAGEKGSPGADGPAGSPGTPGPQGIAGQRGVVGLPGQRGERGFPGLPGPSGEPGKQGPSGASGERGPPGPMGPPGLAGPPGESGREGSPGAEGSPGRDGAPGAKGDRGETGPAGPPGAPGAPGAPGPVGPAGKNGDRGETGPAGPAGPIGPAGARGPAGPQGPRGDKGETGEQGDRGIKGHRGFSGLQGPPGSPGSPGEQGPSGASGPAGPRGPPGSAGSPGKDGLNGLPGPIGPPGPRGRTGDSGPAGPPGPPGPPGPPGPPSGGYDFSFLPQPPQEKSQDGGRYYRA
Sequence (chain, as listed by the source, chain 2 of 2): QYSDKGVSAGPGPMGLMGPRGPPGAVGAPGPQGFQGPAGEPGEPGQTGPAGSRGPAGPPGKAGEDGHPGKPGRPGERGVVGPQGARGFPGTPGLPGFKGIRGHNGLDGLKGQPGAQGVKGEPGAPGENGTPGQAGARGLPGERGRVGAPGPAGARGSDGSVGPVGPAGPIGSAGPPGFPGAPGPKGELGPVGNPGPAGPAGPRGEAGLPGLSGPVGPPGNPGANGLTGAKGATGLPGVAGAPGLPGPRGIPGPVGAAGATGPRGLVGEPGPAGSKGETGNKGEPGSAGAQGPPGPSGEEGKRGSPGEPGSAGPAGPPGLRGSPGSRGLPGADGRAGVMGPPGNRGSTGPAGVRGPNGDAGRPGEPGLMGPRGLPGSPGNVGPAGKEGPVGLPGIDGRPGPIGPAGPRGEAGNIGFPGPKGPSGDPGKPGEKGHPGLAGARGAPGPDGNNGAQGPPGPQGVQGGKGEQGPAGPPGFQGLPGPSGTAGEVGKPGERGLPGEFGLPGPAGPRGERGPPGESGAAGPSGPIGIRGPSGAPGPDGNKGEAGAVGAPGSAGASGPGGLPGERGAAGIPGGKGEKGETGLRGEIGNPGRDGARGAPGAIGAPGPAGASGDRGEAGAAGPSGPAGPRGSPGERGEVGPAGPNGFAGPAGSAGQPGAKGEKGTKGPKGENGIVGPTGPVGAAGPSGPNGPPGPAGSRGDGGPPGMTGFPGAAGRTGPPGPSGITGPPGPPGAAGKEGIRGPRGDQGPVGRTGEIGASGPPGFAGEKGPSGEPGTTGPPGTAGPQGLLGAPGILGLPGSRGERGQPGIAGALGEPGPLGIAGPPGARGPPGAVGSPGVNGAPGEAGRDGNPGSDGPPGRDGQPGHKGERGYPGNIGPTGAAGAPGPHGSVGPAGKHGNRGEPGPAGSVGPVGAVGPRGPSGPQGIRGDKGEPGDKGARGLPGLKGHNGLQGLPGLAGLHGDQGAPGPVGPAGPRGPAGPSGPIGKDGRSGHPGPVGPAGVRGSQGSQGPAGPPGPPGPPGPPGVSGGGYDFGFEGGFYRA

B1: recombinant human MMP1 (wild-type), secreted by AdhGRE.MMP1-infected HTM cells and activated with APMA (active form, 41 kDa) (protein)
chain: FVLTEGNPRWEQTHLTYRIENYTPDLPRADVDHAIEKAFQLWSNVTPLTFTKVSEGQADIMISFVRGDHRDNSPFDGPGGNLAHAFQPGPGIGGDAHFDEDERWTNNFREYNLHRVAAHELGHSLGLSHSTDIGALMYPSYTFSGDVQLAQDDIDGIQAIYGRSQNPVQPIGPQTPKACDSKLTFDAITTIRGEVMFFKDRFYMRTNPFYPEVELNFISVFWPQLPNGLEAAYEFADRDEVRFFKGNKYWAVQGQNVLHGYPKDIYSSFGFPRTVKHIDAALSEENTGKTYFFVANKYWRYDEYKRSMDPGYPKMIAHDFPGIGHKVDAVFMKDGFFYFFHGTRQYKFDPKTKRILTLQKANSWFNCRKN
digestion of native rat tail collagen type I (PAGE gel, Coomassie stain): digested native collagen type I into smaller fragments

— patent US20110301228
